The test system of data set [1] is IL2RG ZFN pair (ZFN-L/ZFN-R, exon 5) (synthetic construct). Description: cell_activity. As to conditions: in vitro sample A.
Data set [2] deals with AAVS1 ZFN pair (ZFN-L/ZFN-R, PPP1R12C intron 1) (synthetic construct). Nature of the data set: cell_activity. As to conditions: CD34+ cord blood cells, Cel-1 mismatch assay, +/-3.8.

Consider 4 substances from patent publication US20150174169.

In data set [1] (B and G ns, mouse C0 0.02), SLC31A1 off-target site came in with an activity of 0.61 % NHEJ. Regarding AAVS1 ZFN target site, the activity in data set [2] was determined as 23.8 % NHEJ. IL2RG ZFN target site came in with an activity in data set [1] (deep sequencing, B 61.18, G 45.60, Cel-1 assay 26.3+/-2.7 (p192)) of 54.6 % NHEJ. In data set [1] (B 0.70, G ns, ns in mouse), SCARB1 off-target site came in with an activity of 0.17 % NHEJ.
